Assay results as given in article PMC7263589, “Integration of phage and yeast display platforms: A reliable and cost effective approach for binning of peptides as displayed on-phage” (PLoS ONE, 2020).
Residue numbers refer to the chain shown, from its start. Names may count otherwise. Ends that are not written are not given here.

Columns and labels:
[1] = biological target: T1, Fluorescently labeled IL-23R, Q5VWK5; assay: flow cytometry on yeast-displayed IL-23; settings: chain shown with the change; n = 1; parent: est. 1.05; read off a plot
T1 chain: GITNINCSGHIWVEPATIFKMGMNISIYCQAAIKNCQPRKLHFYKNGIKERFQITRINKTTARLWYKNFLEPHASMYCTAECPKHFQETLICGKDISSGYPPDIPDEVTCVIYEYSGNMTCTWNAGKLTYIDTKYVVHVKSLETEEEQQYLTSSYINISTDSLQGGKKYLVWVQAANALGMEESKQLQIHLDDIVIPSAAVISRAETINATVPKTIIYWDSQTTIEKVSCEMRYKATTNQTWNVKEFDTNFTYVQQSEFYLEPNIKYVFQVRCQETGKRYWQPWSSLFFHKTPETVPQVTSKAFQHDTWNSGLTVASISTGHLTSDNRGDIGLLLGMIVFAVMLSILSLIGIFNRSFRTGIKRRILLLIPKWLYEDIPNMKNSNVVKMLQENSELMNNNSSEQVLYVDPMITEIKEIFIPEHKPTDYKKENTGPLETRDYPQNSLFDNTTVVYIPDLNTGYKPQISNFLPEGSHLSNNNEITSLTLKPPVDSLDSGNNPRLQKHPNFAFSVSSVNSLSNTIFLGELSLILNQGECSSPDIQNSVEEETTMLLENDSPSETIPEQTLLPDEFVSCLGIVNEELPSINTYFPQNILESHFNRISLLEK

IL-23-AVI [2] = biological target: T2, IL-23-AVI (human, UniProt Q9NPF7 20-189; P29460 23-328); assay: SPR; Biacore T200, 25°C; 200–1000 RU of IL-23-AVI captured to streptavidin chip, IL-23R-FLAG-HIS as analyte, single cycle kinetics; 1:1 model; settings: both partners purified
T2 construct: IL-23 p19 subunit, human; IL-12/IL-23 p40 subunit, human; Captured on streptavidin chips and beads, so biotinylation of the Avi tag is implied; also called Avi-tagged IL-23; recombinant IL-23
T2 sequence (looked up) 1: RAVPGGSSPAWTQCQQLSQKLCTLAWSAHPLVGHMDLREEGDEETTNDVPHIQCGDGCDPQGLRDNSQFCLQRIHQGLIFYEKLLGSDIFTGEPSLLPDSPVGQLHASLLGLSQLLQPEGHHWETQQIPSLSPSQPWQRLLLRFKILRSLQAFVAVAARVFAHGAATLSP
T2 sequence (looked up) 2: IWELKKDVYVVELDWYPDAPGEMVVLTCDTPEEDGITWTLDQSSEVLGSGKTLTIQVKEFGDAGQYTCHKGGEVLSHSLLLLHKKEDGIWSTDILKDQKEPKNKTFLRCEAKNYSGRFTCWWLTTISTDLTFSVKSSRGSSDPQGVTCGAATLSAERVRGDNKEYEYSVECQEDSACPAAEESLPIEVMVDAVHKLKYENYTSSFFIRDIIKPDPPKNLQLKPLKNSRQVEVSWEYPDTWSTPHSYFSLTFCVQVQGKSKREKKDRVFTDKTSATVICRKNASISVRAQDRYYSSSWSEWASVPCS

IL-23-HIS = biological target: T3, IL-23-HIS (human, UniProt Q9NPF7 20-189; P29460 23-328); assay: SPR; competition SPR, 25°C; IL-23R-Fc-AVI (<1000 RU) captured on Protein-A; 20 nM IL-23 mixed with one concentration of peptide or cold IL-23R injected 30 s; 10 mM HEPES pH 7.5, 150 mM NaCl, 0.005% P20, 1% BSA; n = 1; settings: both partners purified
T3 construct: IL-23 p19 subunit, human; IL-12/IL-23 p40 subunit, human; also called IL-23 only; IL-23 protein
T3 sequence (looked up) 1: T2 sequence (looked up) 1
T3 sequence (looked up) 2: T2 sequence (looked up) 2

IL-23-AVI [3] = biological target: T2, IL-23-AVI; assay: AlphaScreen or HTRF; AlphaLISA; IL-23-AVI (1.5 nM) pre-incubated with peptide 30 min, then FLAG-tagged IL-23R (3 nM); streptavidin donor and anti-FLAG acceptor beads; 25 mM HEPES pH 7.4, 150 mM NaCl, 0.02% Tween 20, 0.1% BSA; room temperature; n = 1; settings: both partners purified
IL-23-AVI [4] = biological target: T2, IL-23-AVI; assay: SPR; Biacore T200, 25°C, 50 μl/min; 2000–9000 RU of IL-23-AVI captured to streptavidin chip, peptides as analyte (3-fold series, up to 30 μM); 10 mM HEPES pH 7.5, 150 mM NaCl, 0.005% P20, 3% DMSO; multi-cycle, single cycle kinetics for 23–652; 1:1 model; n = 1; settings: both partners purified
IL-23-AVI [5] = biological target: T2, IL-23-AVI; assay: AlphaScreen or HTRF; TR-FRET; compounds pre-incubated with IL-23R-FLAG 1 h, then IL-23-AVI; Europium-streptavidin and anti-FLAG-allophycocyanin; 25 mM HEPES, 150 mM NaCl, 0.02% Tween 20, 0.1% BSA, pH 7.4, 1% DMSO; n = 1; settings: both partners purified

B1: wild-type IL-23 displayed on yeast, Q9NPF7;P29460 W137A (protein)
chain 1: T2 sequence (looked up) 1 with W137A
chain 2: T2 sequence (looked up) 2
- ratio to parent [1]: 0.1

B2: wild-type IL-23 displayed on yeast, Q9NPF7;P29460 L141A (protein)
chain 1: T2 sequence (looked up) 1 with L141A
chain 2: T2 sequence (looked up) 2
- ratio to parent [1]: 0.1

B3: IL-23R-FLAG-HIS (receptor)
chain: GITNINCSGHIWVEPATIFKMGMNISIYCQAAIKNCQPRKLHFYKNGIKERFQITRINKTTARLWYKNFLEPHASMYCTAECPKHFQETLICGKDISSGYPPDIPDEVTCVIYEYSGNMTCTWNAGKLTYIDTKYVVHVKSLETEEEQQYLTSSYINISTDSLQGGKKYLVWVQAANALGMEESKQLQIHLDDIVIPSAAVISRAETINATVPKTIIYWDSQTTIEKVSCEMRYKATTNQTWNVKEFDTNFTYVQQSEFYLEPNIKYVFQVRCQETGKRYWQPWSSLFFHKTPETVPQVTSKAFQHDTWNSGLTVASISTGHLTSDNRGDIG
modifications: Soluble monomeric ectodomain, FLAG and His tags left out. Limits are not printed in the main text (constructs are in S1 Table of the supplement), so the mature extracellular domain from UniProt …
- Kd (IL-23-AVI [2]): 0.00892 µM
- koff (IL-23-AVI [2]): 0.00151 s⁻¹
- kon (IL-23-AVI [2]): 170000 M⁻¹ s⁻¹

B4: peptide 23–437 (free, chemically synthesized) (peptide)
peptide: FTKEIDSWWLSLMSS
notes: selected from a peptide phage library against IL-23; No cysteines, 15 residues; source: synthetic peptide (CPC Scientific)
- % inhibition of IL-23 binding to immobilised IL-23R (peptide at 30 μM) (IL-23-HIS): 57.6%
- IC50 (IL-23-AVI [3]): 1.4 µM
- Kd (IL-23-AVI [4]): 10.5 µM
- koff (IL-23-AVI [4]): 1.86 s⁻¹
- kon (IL-23-AVI [4]): 178000 M⁻¹ s⁻¹
- IC50 (IL-23-AVI [5]): 7 µM

B5: peptide 23–441 (free, chemically synthesized) (peptide)
peptide: QKITQCVYIIWTYPCLLNDV
notes: selected from a peptide phage library against IL-23; Two cysteines; source: synthetic peptide (CPC Scientific)
- % inhibition of IL-23 binding to immobilised IL-23R (peptide at 30 μM) (IL-23-HIS): 100%
- IC50 (IL-23-AVI [3]): 2.5 µM
- Kd (IL-23-AVI [4]): 0.911 µM
- koff (IL-23-AVI [4]): 0.174 s⁻¹
- kon (IL-23-AVI [4]): 190000 M⁻¹ s⁻¹
- IC50 (IL-23-AVI [5]): 5.7 µM

B6: peptide 23–447 (free, chemically synthesized) (peptide)
peptide: LECLYYLRWKVCDN
modifications: not fully specified (bridges); cysteine pairing not given here
notes: as for B5
- % inhibition of IL-23 binding to immobilised IL-23R (peptide at 30 μM) (IL-23-HIS): 78.7%
- IC50 (IL-23-AVI [3]): 6.7 µM
- Kd (IL-23-AVI [4]): ~27.5 µM
- koff (IL-23-AVI [4]): ~1.33 s⁻¹
- kon (IL-23-AVI [4]): ~48300 M⁻¹ s⁻¹
- IC50 (IL-23-AVI [5]): 24 µM
